pIC50: −log10 of the molar value. Starred links: 1 amine or outer side, 2 acyl side, 3 side chain; linkers in the order of their positions; H or OH if unused. Non-standard residues stand in square brackets, D forms with d. No end group written: not given here. Phe(4-COOH) = N[C@@H](Cc1ccc(C(=O)O)cc1)C(=O)O; AcK = CC(=O)NCCCC[C@H](N[*:1])C(=O)[*:2]; 0P = not defined here
Tests used:
[1] = target: T1, human angiopoietin-2 protein (Homo sapiens, UniProt O15123); test: Competitive ELISA: inhibition of Ang-2-Tie-2 binding, plates coated with Ang-2 (Table 7)
T1 construct: purchased R&D Systems
T1 sequence (O15123 19-496): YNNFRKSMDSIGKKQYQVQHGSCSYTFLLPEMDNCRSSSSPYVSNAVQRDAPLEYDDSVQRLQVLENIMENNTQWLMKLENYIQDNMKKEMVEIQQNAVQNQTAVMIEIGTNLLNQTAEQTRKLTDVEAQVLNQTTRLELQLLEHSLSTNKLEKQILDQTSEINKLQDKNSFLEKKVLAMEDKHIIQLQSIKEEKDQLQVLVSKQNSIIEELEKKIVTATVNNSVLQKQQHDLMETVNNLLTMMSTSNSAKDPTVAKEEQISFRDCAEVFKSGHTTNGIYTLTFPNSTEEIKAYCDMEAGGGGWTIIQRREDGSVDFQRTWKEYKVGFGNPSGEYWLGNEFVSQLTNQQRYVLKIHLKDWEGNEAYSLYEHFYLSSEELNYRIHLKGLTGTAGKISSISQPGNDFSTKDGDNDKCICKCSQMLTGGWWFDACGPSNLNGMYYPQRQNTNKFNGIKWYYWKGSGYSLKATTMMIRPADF
Protocol: The ability of Ang-2 binding compounds to interact with Ang-2 was measured by competition with Tie-2.
For competitive ELISA, human angiopoietin-2 protein and Tie-2-Fc (R&D Systems) were reconstituted without carrier protein. Mouse anti-human Tie-2 (Pharmingen) was used as the primary antibody and goat anti-mouse-IgG1-HRP (Pierce) was used as the secondary antibody. TMB substrate from Pierce was used.
High-binding half-well plates were coated with Ang-2 (100 ng/well) in 50 μl PBS and incubated at 4° C. overnight. Plates were washed three times with washing buffer (0.1% Tween 20, PBS, pH 7.4) and blocked with Superblock (Scytek), 100 μl/well at room temperature (“RT”) for 1 hour. After removing the blocking solution, 50 μl of an Ang-2 binding peptide compound (1 uM and 5× serial dilution) in the presence of 0.25 nM hTie-2-Fc using Superblock as diluent was added and incubated at RT for 2 hours. Plates were washed 3 times with washing buffer. Then, 50 ul of 0.1 ug/ml mouse anti-human Tie-2 diluted in Superblock added and incubated at RT for 1 hour. Following incubation, 50 ul of 1:5,000 dilution of goat anti-mouse IgG-HRP in Superblock was then added and incubated at RT for one hour. After washing 3 times, 50 μl (25 μl TMB+25 μl H2O2) was added, and incubated for 3-5 minutes. Color development was monitored and stopped with 25 μl of 2 M H2SO4. OD450 nm with a correction wavelength of 540 nm was measured.
In Table 7, compounds of SEQ ID NOs: 21-23 are Ang-2 binding peptides alone, not conjugated to either a linker or linker-antibody; compounds of SEQ ID NOs:65 and 66 are Ang-2 binding peptides conjugated to a linker-antibody, where the linker is 4P (“4” PEG) and has the structure of the linker shown in FIG. 2; and compounds 26-63 are Ang-2 binding peptides conjugated to a linker-antibody, where the linker is OP (“O” PEG) and has the structure of the linker shown in FIG. 3. Compounds 24-63 were conjugated to humanized aldolase antibody h38c2 and the linker structures shown in FIG. 2 (4P) and FIG. 3 (OP) when obtainng the data shown below, except where otherwise indicated.
In Table 7, amino acid sequences of peptide compounds are shown with the position of linker OP or 4P indicated in parentheses following the internal amino acid residue to which the linker is attached. For compound of SEQ ID NO:67, the N-terminal “OP” linker is indicated at the beginning of the peptide sequence.

Recombinant human Ang-2 = target: T2, Recombinant human Ang-2 (Homo sapiens, UniProt O15123); test: Truncation study: competition with compound 43 linked to linker and h38c2 for binding to coated Ang-2 (Table 9); conditions: competition with compound 43-linker-h38c2 at 10 ng/mL, read-out: Ang-2 T IC50
T2 sequence (O15123 19-496): T1 sequence (O15123 19-496)
Protocol: Recombinant human Ang-2 was coated on microtiter plates at 0.5 μg/mL in 100 μL, overnight at 2-8° C. Plates were washed between all steps and all subsequent incubations occurred at room temperature. Plates were blocked with 250 μL per well of SuperBlock for 1-3 hours. Test compounds were pre-mixed with compound 43 linked to linker (as shown in FIG. 3) and h38c2 at 10 ng/mL. Peptide mixtures in 100 μL were then added at the listed final concentrations, the plates sealed, and incubated for 1-2 hours. Bound compound 43 was detected with 100 μL of a 1:20,000 dilution of HRP-labeled anti-human IgG reagent for 1-2 hours. Finally, 100 μL TMB substrate was added for 10 minutes and the reaction stopped with 100 μL of 2 NH2SO4 stop solution.

[2] = target: T1, human angiopoietin-2 protein; test: Reverse competition ELISA: inhibition of Ang-2-Tie-2 binding, plates coated with Tie-2-Fc (Table 8); conditions: reverse competitive ELISA; peptide linked to antibody h38c2 via 0P linker
Protocol: For reverse competition ELISA, human Tie-2-Fc, angiopoietin-2 protein, biotinylated anti-human Ang-2 antibody, and streptavidin HRP(R&D Systems) and TMB substrate from Pierce were used.
High-binding half-well plates were coated with Tie-2-Fc (50 ng/well) in 50 μl PBS and incubated at 4° C. overnight. Plates were washed three times with washing buffer (0.1% Tween 20, PBS, pH 7.4) and blocked with Superblock, 150 μl/well at RT for 1 hour. Plates were washed three times. Following washing, 50 μl of an Ang-2 binding peptide compound (50 nM, 5× serial dilution) in the presence of 50 ng/ml (0.83 nM) Ang-2 in Superblock were added and incubated at RT for 1 hour. Plates were washed 3 times, 50 μl of 1 μg/mlbiotinylated anti-Ang-2 detection antibody in Superblock was added and incubated at RT for 2 hours. Plates were washed 3 times, and 50 μl of streptavidin HRP (1:200 dilution in Superblock) was added at RT for 20 minutes. Plates were washed 3 times, and 50 μl (25 μl TMB+25 μl H2O2) substrate solution was added and incubated for 20-30 minutes. Color development was stopped with 25 μl of 2 M H2SO4. OD450 nm with a correction wavelength of 540 nm was measured.
IC50 values are provided for the targeting peptide plus linker (as shown in FIG. 3) and the targeting peptide linked to an antibody (P) via the linker of FIG. 3, unless otherwise specified.

Co10205 cells = test: Xenograft studies: subcutaneous tumor growth in nude mice, % T/C (Table 10); assay type: in vivo
Protocol: Co10205 cells were cultured with 10% FBS RPMI medium and 3×10^6 cells in 0.1 ml Hank's balanced salt solution (HBSS) were injected subcutaneously into the upper right flank of nude mice. After 7-9 days, animals were randomized into appropriate number of groups with average tumor size of 200-300 mm^3. Mice were then treated with the requisite amount of compounds of the invention and tumor volumes were measured twice a week. Animals were terminated once their average tumor volume reached 2000 mm^3. Upon termination, tumors were weighed and saved for further histological studies. Treatment efficacy was evaluated by measuring the difference in the tumor volumes of treated versus control groups. Results are reported as % T/C, where % T/C was calculated as: % T/C=(Vt−V0)/(Ct−C0)×100, where, V0 and Vt were the average tumor volumes of treated groups at the beginning and termination of the group. CO and Ct were the average tumor volumes of the control group at the beginning and termination of the group (Table 10).

[3] = P = targeting peptide linked to antibody h38c2 via the linker, read-out: Ang-2 P IC50
[4] = T = targeting peptide plus linker (compounds 21-23: peptide alone), read-out: Ang-2 T IC50

Row | Substance | pIC50 [1, 3] | further results
1 | 25: "compounds of SEQ ID NOs:65 and 66 are Ang-2 binding peptides conjugated to a linker-antibody, where the linker is 4P (“4” PEG)" (QNYQPLDELDXTLYDQFMLQQG; 4P PEG linker conjugated to antibody; Anti-angiogenic peptide) [Compound 25] | 7.39 | –
2 | 31 (Q[AcK]YQPLDELDETK(0P)YDQFMLQQG; reading uncertain; also: printed as Q(AcK)Y QPL DEL DET K(0P)YD QFM LQQ G) [Compound 31] | < 6.00 | pIC50 [1, 4]: < 5.30
3 | 33 (Q[AcK]YQPLDEK(0P)DETLYDQFMLQQG; reading uncertain) [Compound 33] | 7.05 | –
4 | 35 (QXYQXLDELDXTLYDQFMLQQG; AcK; hydroxyproline; K(0P); Anti-angiogenic peptide) [Compound 35] | 7.78 | –
5 | 36 (QXYQPLDELDXTIYDQFMLQQG; AcK; K(0P) modified lysine; Anti-angiogenic peptide) [Compound 36] | 6.82 | –
6 | 37 (QXYQPLDEIDXTLYDQFMLQQG; AcK; K(0P) modified lysine; Anti-angiogenic peptide) [Compound 37] | 7.10 | –
7 | 38 (QXYQPLDELDXTXYDQFMLQQG; not fully specified; AcK; K(0P); homocyclohexylalanine; Anti-angiogenic peptide) [Compound 38] | 6.15 | pIC50 [1, 4]: < 5.30
8 | 39 (QXYQPLDELDXTXYDQFMLQQG; AcK; K(0P); homophenylalanine; Anti-angiogenic peptide) [Compound 39] | 6.59 | –
9 | 40 (QXYQPLDELDXTXYDQFMLQQG; AcK; K(0P); thienylalanine; Anti-angiogenic peptide) [Compound 40] | 6.45 | pIC50 [1, 4]: < 5.30
10 | 59 (QRYQPLDELDXTLYDQFMLQQG; K(0P) modified lysine; Anti-angiogenic peptide) [Compound 59] | 7.79 | –
11 | 60 (QHYQPLDELDXTLYDQFMLQQG; not fully specified; K(0P) modified lysine; Anti-angiogenic peptide) [Compound 60] | 7.84 | –
12 | 62 (Q[AcK]YQPLDE[AcK]DK(0P)TL[Phe(4-COOH)]DQFMLQQG; not fully specified (C-terminus); reading uncertain; also: 0P linker on K11, antibody h38c2 conjugate or reactive form) [Compound 62] | 7.38 | –
13 | 87 (Ac-[AcK]YQPLDE[AcK]DK(0P)TLYDQFMLQQG-NH2; reading uncertain; also: 0P linker on K10, reactive end group for antibody) [Compound 87] | – | pIC50 (Recombinant human Ang-2): < 5.40
14 | 88 (Ac-YQPLDE[AcK]DK(0P)TLYDQFMLQQG-NH2; reading uncertain; also: 0P linker on K9, reactive end group for antibody) [Compound 88] | – | pIC50 (Recombinant human Ang-2): < 5.40
15 | 89 (Ac-QPLDE[AcK]DK(0P)TLYDQFMLQQG-NH2; reading uncertain; also: 0P linker on K8, reactive end group for antibody) [Compound 89] | – | pIC50 (Recombinant human Ang-2): < 5.40
16 | 90 (Ac-PLDEK(Ac)DK(0P)TLYDQFMLQQG-NH2; reading uncertain; also: 0P linker on K7, reactive end group for antibody) [Compound 90] | – | pIC50 (Recombinant human Ang-2): < 5.40
17 | (Amido 2-PEG)QAcKY QPL DEL DK(OP)T LYD QFMLQQ G (QXYQPLDELDXTLYDQFMLQQG; amido-2-PEG cap; acetyl-lysine; OP linker at K11; Anti-angiogenic peptide) [Compound 52] | 7.74 | –
18 | QAcKY QPL DEL DK(4P)T LYD QFM LQQ G (QXYQPLDELDXTLYDQFMLQQG; not fully specified; acetyl-lysine; 4P PEG linker to antibody at K11; Anti-angiogenic peptide) [Compound 24, "the second amino acid residue is epsilon acyl lysine ... the linking position (in this case a 4P linker) is the lysine residue 11"] | 7.76 | –
19 | R^1-QNY QPL DEL DKT LYD QFM LQQ G-R^2 (QNYQPLDELDKTLYDQFMLQQG; also: variable termini R1, R2) [Compound 28] | 7.54 | pIC50 [1, 4]: 6.76; pIC50 [2]: 9.82; % TC 3 mg/kg 1×/wk (Co10205 cells; 3 mg/kg 1×/wk): 34%; % TC 10 mg/kg 1×/wk (Co10205 cells; 10 mg/kg 1×/wk): 38%
